Assay results from paper PMC1779432.

Target: Soluble HLA-DR4 (DRB1*0401) (human)

Substance	IL-4 secretion by pooled splenocytes and lymph node cells of CII-immunized DR4 transgenic mice (chimeric DR4 on the cells) cultured with 100 μg/ml peptide
CII(256-276)(F263N, E266A) analog peptide	66 pg/mL
CII(256-276)(F263N, E266D) analog peptide	48 pg/mL
